Assay results: US6395526B1, “DNA polymerase” (Takara Shuzo Co., Ltd., priority 1995, dated 2002)

Legend:
[1] = tested on: substrate DNA (template-primer); experiment: DNA polymerase activity on different forms of substrate DNA (template-primer); format: biochemical
Procedure: The DNA polymerase activity was assayed using calf thymus DNA (manufactured by Worthington) activated by DNase I treatment (activated DNA) as a substrate. DNA activation and assay of DNA polymerase activity were carried out by the method described in DNA Polymerase from Escherichia coli, 263-276 (authored by C. C. Richardson), published by Harper & Row, edited by D. R. Davis.
An assay of enzyme activity was carried out by the following method. Specifically, 50 μl of a reaction solution [20 mM Tris-HCl (pH 7.7), 15 mM MgCl2, 2 mM 2-mercaptoethanol, 0.2 mg/ml activated DNA, 40 μM each of dATP, dCTP, dGTP and dTTP, 60 nM [^3H]-dTTP (manufactured by Amersham)], containing a sample for assaying its activity, was prepared and reacted at 75° C. for 15 minutes. A 40 μl portion of this reaction mixture was then spotted onto a DE paper (manufactured by Whatman) and washed with 5% Na2HPO4 five times. The remaining radioactivity on the DE paper was assayed using a liquid scintillation counter. The amount of enzyme which incorporated 10 nmol of [^3H]-dTMP per 30 minutes into the substrate DNA, assayed by the above-described enzyme activity assay method, was defined as one unit of the enzyme.
Next, in order to compare the selectivity of the DNA polymerase of the present invention for different forms of substrate DNA, the following template-primer was examined. Aside from the activated DNA used for conventional assay of the activity, those prepared as substrates include a thermal-denatured DNA prepared by treating the activated DNA at 85° C. for 5 minutes; M13-HT Primer prepared by annealing a 45-base synthetic deoxyribooligonucleotide of the sequence as shown by SEQ ID NO:6 in Sequence Listing as a primer to the M13 phage single stranded DNA (M13mp18 ssDNA, manufactured by Takara Shuzo Co., Ltd.); M13-RNA Primer prepared by annealing a 17-base synthetic ribooligonucleotide of the sequence as shown by SEQ ID NO:7 in Sequence Listing as a primer to the same M13 phage single stranded DNA; Poly dA-Oligo dT prepared by mixing polydeoxyadenosine (Poly dA, manufactured by Pharmacia) and oligodeoxythymidine (Oligo dT, manufactured by Pharmacia) in a 20:1 molar ratio; and Poly A-Oligo dT prepared by mixing polyadenosine (Poly A, manufactured by Pharmacia) and oligodeoxythymidine in a 20:1 molar ratio.
The DNA polymerase activity was assayed using these substrates in place of the activated DNA. The relative activity of each substrate when the activity obtained in the case of using an activated DNA as a substrate is defined as 100 is shown in Table 1. For comparison, the Pfu DNA polymerase and the Taq DNA polymerase derived from Thermus aquaticus (TaKaRa Taq, manufactured by Takara Shuzo Co., Ltd.) were also examined in the same manner.

[2] = tested on: λ-DNA; experiment: PCR with λ-DNA as a template; format: biochemical
Procedure: In order to compare the performance of the DNA polymerase of the present invention in PCR with that of the Taq DNA polymerase, PCR was carried out with λ-DNA as a template. The reaction mixture for the DNA polymerase of the present invention had the following composition: 10 mM Tris-HCl (pH 9.2), 3.5 mM MgCl2, 75 mM KCl, 400 μM each of dATP, dCTP, dGTP and dTTP, 0.01% bovine serum albumin (BSA), and 0.1% Triton X-100. The reaction solution for the Taq DNA polymerase had the following composition: 10 mM Tris-HCl (pH 8.3), 1.5 mM MgCl2, 50 mM KCl, and 400 μM each of dATP, dCTP, dGTP and dTTP. Fifty microliters of a reaction mixture containing 5.0 ng/50 μl λ-DNA (manufactured by Takara Shuzo Co., Ltd.), 10 pmol/50 μl each of primer λ1 and primer λ11, and 3.7 units/50 μl DNA polymerase was prepared. The base sequences of the primer λ1 and the primer λ11 are shown by SEQ ID NO:8 and SEQ ID NO:9 in Sequence Listing, respectively. After, a 30-cycle PCR was carried out with the above reaction mixture, wherein one cycle is defined at 98° C. for 10 seconds and at 68° C. for 10 seconds. Five microliters of the reaction mixture was subjected to agarose gel electrophoresis, and the amplified DNA fragment was confirmed by staining with ethidium bromide.
The experiment was then carried out by changing the primer to the primer λ1 and the primer λ10. The base sequence of the primer λ10 is shown by SEQ ID NO:10 in Sequence Listing. Twenty-five microliters of a reaction mixture having a similar composition to that shown above and containing 2.5 ng of λ-DNA, 10 pmol of the primer λ1 and the primer λ10, respectively, and 3.7 units of DNA polymerase was prepared. The reaction mixture was reacted in 5 cycles under the same reaction conditions as those described above, and 5 μl of the reaction mixture was subjected to agarose gel electrophoresis and stained with ethidium bromide.

[3] = substrate M13-HT primer, activated DNA = 100
[4] = substrate M13-RNA primer, activated DNA = 100
[5] = substrate activated DNA (defined as 100)
[6] = substrate poly A-Oligo dT, activated DNA = 100
[7] = substrate poly dA-Oligo dT, activated DNA = 100
[8] = substrate thermal-denatured DNA, activated DNA = 100
[9] = primer λ1 and primer λ10, 5 cycles

| Substance | Relative Activity [1, 3] | Relative Activity [1, 4] | Relative Activity [1, 5] | Relative Activity [1, 6] | Relative Activity [1, 7] | Relative Activity [1, 8] | length of DNA fragment amplified by PCR [2, 9] | length of DNA fragment amplified by PCR ([2]; primer λ1 and primer λ11, 30 cycles, enzyme used alone) |
| --- | --- | --- | --- | --- | --- | --- | --- | --- |
| DNA Polymerase of the Present Invention: complex of first (ORF3, SEQ ID NO:2) and second (ORF4, SEQ ID NO:4) DNA polymerase-constituting proteins from Pyrococcus furiosus | 170 | 52 | 100 | 0.085 | 94 | 340 | about 15 kbp |  |
| Taq DNA Polymerase: Taq DNA polymerase derived from Thermus aquaticus (TaKaRa Taq, manufactured by Takara Shuzo Co., Ltd.) [reference compound] | 90 | 38 | 100 | 0.063 | 290 | 130 | no specific amplification was observed | not found |
